Target: the molecule itself
Assay: ESI-MS; peptide 100 uM in 10 mM borate buffer pH 9, incubated with compound 2 (1:10) for 0 h (UV-irradiated) or 24 h (not irradiated), diluted in 15 mM ammonium acetate

B1: nucleophosmin 1 (NPM1) 264-277, second helix (H2) of the C-terminal domain (peptide)
peptide: Ac-VEAKFINYVKNCFR-NH2
notes: nucleophosmin 1 (NPM1), helix H2 of the C-terminal domain, residues 264-277; By ESI-MS the peptide is present as a monomer and as a disulfide-bridged dimer; also called NMP1_(264–277); NPM1_(264–277)(M); source: synthetic peptide (SPPS), treated with HFIP, purified by RP-HPLC
  stoichiometry N: 2

Source: article PMC7464691, “Modulation of Amyloidogenic Peptide Aggregation by Photoactivatable CO-Releasing Ruthenium(II) Complexes” (Pharmaceuticals, 2020)
